Reference: a protein production outcome set (Wang et al. 2014)

Assay: label from the status in PepcDB records

In the case of “MTELDQFWPACLARLEAELSSQQFNTWIKPLTAEAGDEGIALFAPNRFIMQFIKDRFLPRIEELAVELVGELPVELRLGAPTARPAAPVAGNSQPKAKEPAKAAASAPAAPSPAKQAAVKAIGGSHESTRLNPSFTFDTLVTGKGNQLARAAAMQIAENPGDQAYNPLFVYGGVGLGKTHLIQAIGNHVFQKNPQAKIRYIHAERYVADIMRAYQHKAFDEFKRYYHSLDLLLIDDIQFFAGKNRTQEEFFYAFNALIEGGKQVIMTCDSYPKQIEGMEERLISRFSWGLTVEIQPPELEMRVAILMKKAEADSIKLEHNVAFFIAQNVRSNVRELEGALKRVVAYARFTSQNITLELVKEALKDILAAGNRQVTVDAIQKTVAEYYKIKLSDMHSKKRSRDIARPRQVAMALAKELTQLSLPNIGDAFGGRDHTTVLHACKTITEMRASDADIAHDYEALLSMLRNLEHHHHHH”, the protein production is reported as “failed”.

For “MQAALEVTARYCGRELEQYGQCVAAKPESWQRDCHYLKMSIAQCTSSHPIIRQIRQACAQPFEAFEECLRQNEAAVGNCAEHMRRFLQCAEQVQPPRSPATVEAQPLPAS”, the protein production was “failed”.

With “MGKIMEWAARSDHLGGIPRNTVIMAVSAFAKAVANLCNKSSVHNADTLMNLVQSRPPGVPLITVSNHMSTLDDPVMWGAFKGLLSLDPELARWVLAAEDICFRNPIFSYIFRTGKCIPITRGGGIYQENMNEALQRLKDGSWLHTFPEGKVFQDDVPIRRLKWGTASLIARSPVTPIVLPIIHRGFEEMMPENYNNGRRPLVPLPNKHLKVVVGEPIEFDVPMMVETAVLDSRHVTPPLQEVKWPVLTSAGQVLDETAQRHLYIALSEKIQSSLETLRLLAKRL” the protein production was “failed”.

For “HPNVTFIIGENGTGKSTLLEGIAIALGFNAEGGTKNFRFSTNDSHSSLHEYLRISKSFNTPSDGFFLRAESFYNVASYIDEIDADLEARGNPVIDSYGGISLHEQSHGESFFSLFMNRFSGQGLYILDEPEAALSPMRQLSMLIRMHELAEQGSQFVIATHSPILMAYPESTIYSLTQEG”, the protein production was “failed”.

For “MTVVVERQISHPPEKLWRALTQPHLIEEWLMKNDFKPAVGHRFNISADWGGVLDCEVLAVEPNKTLSYTWNLAHQDPAFDLRSVVTFTLTPTPTGTHLRMEQSGFRPDQRRAYGGAKMGWPQFFEKLEQLLDRTDLEHHHHHH”, the protein production was “not failed”.

In the case of “MSDNAKHHRDGHLVASGLQDRAARTPQHEGFLGPDRPWHLSFSLLLAGSFVLFSWWAFDYAGSGANKVILVLATVVGMFMAFNVGGNDVANSFGTSVGAGTLTMKQALLVAAIFEVSGAVIAGGDVTETIRSGIVDLSGVSVDPRDFMNIMLSALSAAALWLLFANRMGYPVSTTHSIIGGIVGAAIALGMVSGQGGAALRMVQWDQIGQIVVSWVLSPVLGGLVSYLLYGVIKRHILLYNEQAERRLTEIKKERIAHRERHKAAFDRLTEIQQIAYTGALARDAVAANRKDFDPDELESDYYRELHEIDAKTSSVDAFRALQNWVPLVAAAGSMIIVAMLLFKGFKHMHLGLTTMNNYFIIAMVGAAVWMATFIFAKTLRGESLSRSTFLMFSWMQVFTASGFAFSHGSNDIANAIGPFAAILDVLRTGAIEGNAAVPAAAMVTFGVALCAGLWFIGRRVIATVGHNLTTMHPASGFAAELSAAGVVMGATVLGLPVSSTHILIGAVLGVGIVNRSTNWGLMKPIVLAWVITLPSAAILASVGLVALRAIF”, the protein production is reported as “failed”.

For “MATGNTLLAVYRSRIGEPTTDDEAYGYWLFVIGIVLGIVGLLLFYLTASRSTPRQFGYLLGAIGLISLFAGPTIRLPLTRRGLILTYLGAVVGLVAMVWFTTFYPSNWTGPEGNPAVTLYIVGLGLMAVGAVVSPLLTGRKEAYDKAVQTAEDATEVAEQATQEADRASREATQQSQTADRATRERNRLAEQLATSEAAREELATVTEASEAELAAAHATIAAAMDSKATFELYEDAGGKYRWRLRHRNANVIADSAQGYSSRQKAMQGLRSVQSNAAGGAVVFFEDATEDDTAEDVPVVPAPESDATFELFEDSAGEFRWRLRHDNGNILADSGEGYASKSNVRRALQSVRAHVPGAAYLRVDPVAYEVYADAAGEFRWRLLHRNGNILADSGEGYSSRSNARRAARRVSELAPDSAVDDRFEVYEDAAEEWRWRLRADNGELIADSGEGYANRSKAMDAVERVQSYAADADLLAIGSAAFEVYEDKGEEWRWRLRHRNGKIIADSGEGYAERNKAVAAIERIKRHAPGATQEE”, the protein production was “failed”.

With “MLVRLTMICNGATAATRRGSFPLDEPLEPRSLTRAKAMRGTLRHADRAWTAPALRARQIAEALSLEAAVEPLLADQDHGSWAGKSFEDVQAEQPGDIAAWLADPDAAPHGGESLADVARRASGLMEKLMAEPGHTIAMTHASVIRTAIVHVLGAPLAACWKIDIEPLSITDFRSDGRRWVLRACGVTSPKAAKPLLR” the protein production was “failed”.

With “SYTEVRELVNFVCRYLFGHIPRRPVGIFGAELGNYLVSHFSSTWDVHHPKNGEMKRMINTTTSLCFASSAEEAGVPPSDVLRLLPTNMIIFANPGHVFVRLSENGIETPIWIGDVNCDENYQSVPEYVVRTAAIRAEPCSNLGAAGKSVLVGKKPLLTNDKAALEMVNTMYSPLAREKCDDINANLSHLREMYPFRFVYKPSSAQTFSGVEFSQTRFGSSKSRPDLQTMDVIKYLSSQQVSSSSSPSFTYSSINDQMRYSPRF” the protein production was “not failed”.

For “MVSSSLSLTTLAGGTLLLKGSPSTLFYKHGRTLFIVDPGHGRKRAKQISKAAEKLGGEAVAIITHFHSDHLSTLYQGFQPSTALAPVKDLAMVQDRVMRLHYTFGYPFTGAEDYLLFKAEDVDNVEPLEAERIKPLRLVPLPGHTPGQTGVETPDGVLYAADSIFGERVLQTYAVPYHSNPCQALETLTRLRDRVNRLEVIVPSHGKPVKGEEAERLLEMNIERLEDAWTALTEELSRAPASVGLLASTLMKRYGAEATPTLAILVETAVRGYIGCHGAELEPILESGVVKWRVRRR”, the protein production was “failed”.

In the case of “MIIRDQLILSIDNDLRDLIKARDIGVIYVYREETGEPEPGPSIEDIDLPEPLLEALKKRGIRRLYRFQYDAYKSILNGENVVITAGTGTGKTEAFLLPILSKIYEKRTPNPQAMLVYPTKALARDQLQRINDYLGYGVFSAAVYDGDTPRRIRQKISANPPDIVVTNPDMIHVGLVLSPTIRRFVKASQFMVIDELHVYEGVFGSNVKCVFERINKYRRNNPPQYIGSSATIGNPREHAETLFGVPVKVIEGPLRRRGIAYHVLVSAGKLSRWTVTAALASVLARRGLRFIVFVDSQQMAELIARIAWRSYGVDIMVHRAGLPADERKMIESKLRAGEISGVAATPTLELGIDIGFLDAVIMAAPPPSFAKYLQRAGRAGRRGRKGYVFTVLADDPIDAYYERNPKRYFEQEIPPLYMDPENEEVLRIHLLALLLEQGRIRRDELKRAWLRVAERLRYERLVAWVGPYIYPNYRLARKIFMEYMSIRGSGPQVVIYDVDEKNIVGYRELPQAVLDLHPDAVYLLNRRVYKSIEIDVDKKIARVKRLPDDTPYYTRPLYTVDLVDYSILASRTSSRGIPLAYAWVKLSINVEGYIVRNYWETEKAGIKYWFDHPITYTYNTKALLLKYPENPEWDYMSNAEAFHAIEHALISAARPVCGAALGEMGGISYPSGDIVIYDGAPGGSGLAKLLFERFEKAEEIAYEIVSKCDCEDGCPRCIYSPYCGNNNQVLSRRKATYVLGNILKRGAVKVMEPIKNRYGKPIV”, the protein production is reported as “failed”.

With “MSLNSEAKSRIACDIDFDRDGRQAGYARAPLSRNNSGWGTVEIPITVVKNGSGPTVLLTGGVHGDEYEGQIAISDLARRLRPEEVQGRVIMLPAVNMPAIQSDTRLSPVDGRDINRCFPGDPRGTFSQMLAHFLDSVILPMADISVDMHTAGHSYDSTPSTNMHYLADPALRARTLAAAEAFGAPHNVVFGGVDEGSTFTSCVERRGIVSLGTELGGWGRVNIEGVRIGKRGILNVLKHMGVIEGTPETAQRGGAAGTRHMMVREADAYVMAPRTGLFEPTHYVGEEVRTGETAGWIHFVEDVDTAPLELLYRRDGIVWFGAGPGRVTRGDAVAVVMEDYNDTWPQEGHHHHHH” the protein production was “not failed”.
